Experimental data: the supplement of paper PMC12667976
± gives the standard error.

B1: library; numbered along this chain (parent)
chain: MATDAALRRLLRLHRTEIAVAVDSAFPLLHALADHDVVPEDKFQETLHLKEKEGCPQAFHALLSWLLTQDSTAILDFWRVLFKDYNLERYGRLQPILDSFPKDVDLSQPRKGRKPPAVPKALVPPPRLPTKRKASEEARAAAPAALTPRGTASPGSQLKAKPPKKPESSAEQQRLPLGNGIQTMSASVQRAVAMSSGDVPGARGAVEGILIQQVFESGGSKKCIQVGGEFYTPSKFEDSGSGKNKARSSSGPKPLVRAKGAQGAAPGGGEARLGQQGSVPAPLALPSDPQLHQKNEDECAVCRDGGELICCDGCPRAFHLACLSPPLREIPSGTWRCSSCLQATVQEVQPRAEEPRPQEPPVETPLPPGLRSAGEEVRGPPGEPLAGMDTTLVYKHLPAPPSAAPLPGLDSSALHPLLCVGPEGQQNLAPGARCGVCGDGTDVLRCTHCAAAFHWRCHFPAGTSRPGTGLRCRSCSGDVTPAPVEGVLAPSPARLAPGPAKDDTASHEPALHRDDLESLLSEHTFDGILQWAIQSMARPAAPFPS

Variants of: B1
Assay: AIRE transcriptional activation functional score (insulin promoter-GFP; nonsense median 0, synonymous median 1) (normalised score); higher = higher AIRE activity (more reporter activation)
Conditions: with insulin promoter-GFP reporter in HEK293
Method: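 Deep mutational scan of full-length human AIRE (codon-optimized cDNA, DT-POPCode NNN libraries over three regions) integrated at a Bxb1 landing pad in HEK293 cells carrying an insulin core promoter-GFP reporter at a Flp-In site. Cells were sorted for the top 10% GFP about 14 days after transfection. Variant frequency log-ratios (select vs non-select, TileSeq) were rescaled so that the nonsense median is 0 and the synonymous median is 1, then averaged over biological replicates.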

Variant	AIRE transcriptional activation functional score
T344C	1.26 ± 0.26
T344A	0.851 ± 0.38
A33I	-1.54 ± 0.91
A505Y	1.59 ± 0.042
L308K	0.0443 ± 0.47
A404W	1.16 ± 0.096
N427I	1 ± 0.25
P357R	1.07 ± 0.24
C472N	0.0317 ± 0.94
T46H	0.478 ± 0.15
K294W	-0.487 ± 0.098
S71K	1.2 ± 0.25
L428P	0.955 ± 0.32
G150C	1.38 ± 0.11
P119M	0.545 ± 0.12
P497Q	1.02 ± 0.092
L418E	0.507 ± 0.12
R174K	0.973 ± 0.29
P124T	0.68 ± 0.46
P124V	1.65 ± 0.37
P124F	1.35 ± 0.25
M194D	-0.299 ± 0.48
M194R	0.732 ± 0.29
R9T	0.253 ± 0.34

Variant	AIRE transcriptional activation functional score
V214R	0.66 ± 0.11
V214S	0.447 ± 0.32
F82M	-1.23 ± 0.75
V393S	0.746 ± 0.3
P200V	0.795 ± 0.26
L66H	0.316 ± 0.2
R247P	0.344 ± 0.24
A2V	-0.0464 ± 0.12
D98L	0.703 ± 0.56
Q189P	0.54 ± 0.2
L67P	-0.378 ± 0.59
L67M	0.554 ± 0.29
P166R	0.947 ± 0.72
Q349M	0.852 ± 0.023
Q349E	1.04 ± 0.12
V487R	0.785 ± 0.2
P315I	1 ± 0.11
A317R	0.922 ± 0.29
A317I	0.854 ± 0.16
G260C	1.01 ± 0.12
E51K	0.391 ± 0.53
D198L	0.549 ± 0.26
S239Y	1.43 ± 0.23
F215A	0.568 ± 0.53

Variant	AIRE transcriptional activation functional score
F215E	0.601 ± 0.31
F215Y	0.54 ± 0.17
N244M	-0.168 ± 0.073
S196P	0.792 ± 0.17
Q108C	0.53 ± 0.28
Q108N	0.625 ± 0.28
G277F	1.23 ± 0.49
P483Q	0.926 ± 0.086
F43Q	-0.593 ± 0.23
F43I	-0.197 ± 0.56
T468V	0.997 ± 0.24
T468R	0.696 ± 0.3
A5E	1.41 ± 0.12
A352S	1 ± 0.21
R351E	0.835 ± 0.39
R351P	1.02 ± 0.32
V345W	1.52 ± 0.023
A450F	1.24 ± 0.54
A450R	1.4 ± 0.074
G218T	1.11 ± 0.54
G218P	0.651 ± 0.19
I211A	-0.0822 ± 0.079
R445A	0.543 ± 0.18
R445Q	0.898 ± 0.28

Variant	AIRE transcriptional activation functional score
N179A	1.53 ± 0.52
P143T	1.49 ± 0.49
P143I	0.862 ± 0.41
P143Y	1.39 ± 0.15
R110W	1.5 ± 0.21
R110Y	1.61 ± 0.24
S153P	1.7 ± 0.17
K259F	1.08 ± 0.035
V420Q	-0.123 ± 0.3
V420A	1.04 ± 0.17
R127E	0.317 ± 0.17
T441C	1.25 ± 0.14
K111A	1.84 ± 0.04
V301E	1.05 ± 0.057
S332P	0.628 ± 0.17
P355A	0.981 ± 0.13
D23V	-0.286 ± 0.3
L87P	0.0832 ± 1.1
V104D	-0.387 ± 0.14
P39W	0.403 ± 0.26
P39T	1.25 ± 0.41
I528S	-0.0342 ± 0.35
L320K	0.922 ± 0.16
L470E	0.628 ± 0.14

Variant	AIRE transcriptional activation functional score
L470D	0.572 ± 0.11
Q293C	0.906 ± 0.044
V206L	1.1 ± 0.28
L323Q	1.35 ± 0.26
L323D	1.16 ± 0.038
E376D	0.34 ± 0.18
Q346I	1.01 ± 0.16
P109E	0.161 ± 0.073
P109V	0.635 ± 0.4
W78A	0.0338 ± 0.39
R12H	-0.211 ± 0.16
R12K	1.84 ± 0.66
K243S	1 ± 0.5
K243P	0.97 ± 0.07
G178E	0.493 ± 0.29
G178D	0.549 ± 0.096
G178A	0.405 ± 0.5
S338M	1.32 ± 0.11
L47V	0.302 ± 0.51
L47I	-0.62 ± 0.23
P380Q	1.16 ± 0.17
A205P	0.728 ± 0.16
D410W	0.337 ± 0.064
R113I	1.46 ± 0.3

Variant	AIRE transcriptional activation functional score
R113L	0.951 ± 0.3
P125D	0.901 ± 0.16
D478Q	0.891 ± 0.1
E485F	1.1 ± 0.035
H35P	0.148 ± 0.28
H35G	0.0779 ± 0.72
H35W	0.553 ± 0.31
P266W	0.984 ± 0.075
C299Q	0.508 ± 0.37
C299N	0.262 ± 0.084
S234K	0.869 ± 0.12
A413V	0.931 ± 0.37
V22P	-0.118 ± 0.69
P492G	1.01 ± 0.11
P95K	0.336 ± 0.083
E45M	-1.43 ± 0.084
G180Y	0.548 ± 0.48
G268H	0.564 ± 0.047
G197A	0.912 ± 0.25
Q225A	0.99 ± 0.27
Q225N	0.762 ± 0.14
V256K	0.102 ± 0.38
P365W	1.45 ± 0.068
P365Y	1.75 ± 0.063

Variant	AIRE transcriptional activation functional score
L255Q	1.01 ± 0.26
L255H	1.28 ± 0.12
L255C	0.506 ± 0.13
L255G	1.24 ± 0.31
S185D	0.436 ± 0.23
R471C	0.215 ± 0.1
G305E	0.782 ± 0.13
G305H	0.264 ± 0.093
G305T	1.35 ± 0.21
A193S	0.899 ± 0.26
A193G	0.791 ± 0.26
S518A	0.775 ± 0.32
E171Y	1.41 ± 0.3
G421L	0.327 ± 0.17
Q342R	0.876 ± 0.31
D312P	0.626 ± 0.25
A265R	0.748 ± 0.39
G313M	-0.04 ± 0.12
V348I	1.08 ± 0.076
V348T	1.04 ± 0.12
I18A	-0.708 ± 0.62
Y394M	1.13 ± 0.056
A19W	-0.29 ± 0.099
